Experimental findings from patent publication US7662583B2, “Bioreactor containing cells expressing glycosyltransferase nucleic acids isolatable from Arabidopsis” (The University of York, priority 2003, dated 2010) are described below.

First the molecules themselves.
B1: UGT78D3: Arabidopsis recombinant glycosyltransferase, FIG. 6 (protein, UniProt Q9LFK0 1-459, looked up)
UDP-glycosyltransferase 78D3: MAKPSQPTRDSHVAVLVFPFGTHAAPLLAVTCRLATAAPSTVFSFFSTARSNSSLLSSDIPTNIRVHNVDDGVPEGFVLTGNPQHAVELFLEAAPEIFRREIKAAETEVGRKFKCILTDAFLWLAAETAAAEMKASWVAYYGGGATSLTAHLYTDAIRENVGVKEVGERMEETIGFISGMEKIRVKDTQEGVVFGNLDSVFSKTLHQMGLALPRATAVFINSFEELDPTFTNDFRSEFKRYLNIGPLALLSSPSQTSTLVHDPHGCLAWIEKRSTASVAYIAFGRVATPPPVELVAIAQGLESSKVPFVWSLQEMKMTHLPEGFLDRTREQGMVVPWAPQVELLNHEAMGVFVSHGGWNSVLESVSAGVPMICRPIFGDHAINARSVEAVWEIGVTISSGVFTKDGFEESLDRVLVQDDGKKMKVNAKKLEELAQEAVSTKGSSFENFGGLLDEVVNFG
B2: UGT71C5: Arabidopsis recombinant glycosyltransferase (protein, UniProt Q9FE68 1-480, looked up)
UDP-glycosyltransferase 71C5: MKTAELIFVPLPETGHLLSTIEFGKRLLNLDRRISMITILSMNLPYAPHADASLASLTASEPGIRIISLPEIHDPPPIKLLDTSSETYILDFIHKNIPCLRKTIQDLVSSSSSSGGGSSHVAGLILDFFCVGLIDIGREVNLPSYIFMTSNFGFLGVLQYLPERQRLTPSEFDESSGEEELHIPAFVNRVPAKVLPPGVFDKLSYGSLVKIGERLHEAKGILVNSFTQVEPYAAEHFSQGRDYPHVYPVGPVLNLTGRTNPGLASAQYKEMMKWLDEQPDSSVLFLCFGSMGVFPAPQITEIAHALELIGCRFIWAIRTNMAGDGDPQEPLPEGFVDRTMGRGIVCSWAPQVDILAHKATGGFVSHCGWNSVQESLWYGVPIATWPMYAEQQLNAFEMVKELGLAVEIRLDYVADGDRVTLEIVSADEIATAVRSLMDSDNPVRKKVIEKSSVARKAVGDGGSSTVATCNFIKDILGDHF
B3: UGT73B2: Arabidopsis recombinant glycosyltransferase (protein, UniProt Q94C57 1-483, looked up)
UDP-glucosyl transferase 73B2: MGSDHHHRKLHVMFFPFMAYGHMIPTLDMAKLFSSRGAKSTILTTSLNSKILQKPIDTFKNLNPGLEIDIQIFNFPCVELGLPEGCENVDFFTSNNNDDKNEMIVKFFFSTRFFKDQLEKLLGTTRPDCLIADMFFPWATEAAGKFNVPRLVFHGTGYFSLCAGYCIGVHKPQKRVASSSEPFVIPELPGNIVITEEQIIDGDGESDMGKFMTEVRESEVKSSGVVLNSFYELEHDYADFYKSCVQKRAWHIGPLSVYNRGFEEKAERGKKANIDEAECLKWLDSKKPNSVIYVSFGSVAFFKNEQLFEIAAGLEASGTSFIWVVRKTKDDREEWLPEGFEERVKGKGMIIRGWAPQVLILDHQATGGFVTHCGWNSLLEGVAAGLPMVTWPVGAEQFYNEKLVTQVLRTGVSVGASKHMKVMMGDFISREKVDKAVREVLAGEAAEERRRRAKKLAAMAKAAVEEGGSSFNDLNSFMEEFSS
B4: UGT78D1: Arabidopsis recombinant glycosyltransferase (protein, UniProt Q9S9P6 1-453, looked up)
Flavonol-3-O-rhamnosyltransfer …: MTKFSEPIRDSHVAVLAFFPVGAHAGPLLAVTRRLAAASPSTIFSFFNTARSNASLFSSDHPENIKVHDVSDGVPEGTMLGNPLEMVELFLEAAPRIFRSEIAAAEIEVGKKVTCMLTDAFFWFAADIAAELNATWVAFWAGGANSLCAHLYTDLIRETIGLKDVSMEETLGFIPGMENYRVKDIPEEVVFEDLDSVFPKALYQMSLALPRASAVFISSFEELEPTLNYNLRSKLKRFLNIAPLTLLSSTSEKEMRDPHGCFAWMGKRSAASVAYISFGTVMEPPPEELVAIAQGLESSKVPFVWSLKEKNMVHLPKGFLDRTREQGIVVPWAPQVELLKHEAMGVNVTHCGWNSVLESVSAGVPMIGRPILADNRLNGRAVEVVWKVGVMMDNGVFTKEGFEKCLNDVFVHDDGKTMKANAKKLKEKLQEDFSMKGSSLENFKILLDEIVKV
B5: UGT72B3: Arabidopsis recombinant glycosyltransferase (protein, UniProt Q9LNI1 1-481, looked up)
UDP-glycosyltransferase 72B3: MADGNTPHVAIIPSPGIGHLIPLVELAKRLLDNHGFTVTFIIPGDSPPSKAQRSVLNSLPSSIASVFLPPADLSDVPSTARIETRISLTVTRSNPALRELFGSLSAEKRLPAVLVVDLFGTDAFDVAAEFHVSPYIFYASNANVLTFLLHLPKLDETVSCEFRELTEPVIIPGCVPITGKDFVDPCQDRKDESYKWLLHNVKRFKEAEGILVNSFVDLEPNTIKIVQEPAPDKPPVYLIGPLVNSGSHDADVNDEYKCLNWLDNQPFGSVLYVSFGSGGTLTFEQFIELALGLAESGKRFLWVIRSPSGIASSSYFNPQSRNDPFSFLPQGFLDRTKEKGLVVGSWAPQAQILTHTSIGGFLTHCGWNSSLESIVNGVPLIAWPLYAEQKMNALLLVDVGAALRARLGEDGVVGREEVARVVKGLIEGEEGNAVRKKMKELKEGSVRVLRDDGFSTKSLNEVSLKWKAHQRKIDQEQESFL
B6: UGT71B5: Arabidopsis recombinant glycosyltransferase (protein, UniProt O23382 1-478, looked up)
UDP-glycosyltransferase 71B5: MKIELVFIPLPGIGHLRPTVKLAKQLIGSENRLSITIIIIPSRFDAGDASACIASLTTLSQDDRLHYESISVAKQPPTSDPDPVPAQVYIEKQKTKVRDAVAARIVDPTRKLAGFVVDMFCSSMIDVANEFGVPCYMVYTSNATFLGTMLHVQQMYDQKKYDVSELENSVTELEFPSLTRPYPVKCLPHILTSKEWLPLSLAQARCFRKMKGILVNTVAELEPHALKMFNINGDDLPQVYPVGPVLHLENGNDDDEKQSEILRWLDEQPSKSVVFLCFGSLGGFTEEQTRETAVALDRSGQRFLWCLRHASPNIKTDRPRDYTNLEEVLPEGFLERTLDRGKVIGWAPQVAVLEKPAIGGFVTHCGWNSILESLWFGVPMVTWPLYAEQKVNAFEMVEELGLAVEIRKYLKGDLFAGEMETVTAEDIERAIRRVMEQDSDVRNNVKEMAEKCHFALMDGGSSKAALEKFIQDVIENMD

The nature of one data set: UGT enzyme reaction with quercetin (recombinant UGTs, HPLC). The class given is biochemical, Arabidopsis. The note with it: quercetin glucosylated at 3-OH; 0.5 mM quercetin, 5 mM UDP-glucose, 30° C. Here is the method:
The assay mix (200 μl) contained 2 μg of recombinant protein, 100 mM Tris-HCl, pH 7.0, 5 mM UDP-glucose 1.4 mM 2-mercaptoethanol, and 0.5 mM of quercetin. The reaction was carried out at 30° C. for 1 h, and was quick-frozen and stored at −20° C. prior to the reverse-phase HPLC analysis
Reverse-phase HPLC (SpectraSYSTEM HPLC systems and UV6000LP Photodiode Array Detector, ThermoQuest) analysis was carried using a Columbus 5μ C18 column (250×4.60 mm, PHENOMENEX). Quercetin glucosides were separated from the aglycone by a linear gradient of 10-75% acetonitrile in H2O (all solution contained 0.1% trifluoroacetic acid) at 1 ml/mm over 20 mm and monitored at 370 nm. Cytokinin glucosides were separated from their aglycone by a liner gradient of 10-100% methanol in H2O (for N6-isopentenyladenine (iP), N6-benzyladenine and kinetin) or 10-60% methanol in H2O (for trans-zeatin and dihydrozeatin) at 1 ml/min over 20 mm. All solution contained 0.25% acetic acid and 0.04% triethylamine, trifluoroacetic acid. The separation was monitored at 206 nm and 252 nm. The identity of the products was confirmed by comparison with authentic gluco sides.
The activity of Arabidopsis recombinant UGTs towards quercetin was determined using the platform developed previously^15.
With B1, the “Specific activity (nkat/mg protein) 3-O-glc” value amounted to 0.16 nkat/mg protein.

Consider B2, for which the “Specific activity (nkat/mg protein) 3-O-glc” value is recorded as 0.33 nkat/mg protein.

Turning to B3, the “Specific activity (nkat/mg protein) 3-O-glc” value was determined as 0.92 nkat/mg protein.

In the case of B4, the “Specific activity (nkat/mg protein) 3-O-glc” value was found to be 0.24 nkat/mg protein.

In the case of B5, the “Specific activity (nkat/mg protein) 3-O-glc” value was determined as 0.20 nkat/mg protein.

Turning to B6, the “Specific activity (nkat/mg protein) 3-O-glc” value is 0.26 nkat/mg protein.

The data set is the same for the next values; noted with them: quercetin glucosylated at 3′-OH; 0.5 mM quercetin, 5 mM UDP-glucose, 30° C.
For the molecule B1, the “Specific activity (nkat/mg protein) 3′-O-glc” value is “— (Activity lower than 0.02 nkat/mg protein has been considered as trace activity and is not shown in the Table.)”.

Consider B2, for which the “Specific activity (nkat/mg protein) 3′-O-glc” value was “— (Activity lower than 0.02 nkat/mg protein has been considered as trace activity and is not shown in the Table.)”.

Consider B3, for which the “Specific activity (nkat/mg protein) 3′-O-glc” value is “— (Activity lower than 0.02 nkat/mg protein has been considered as trace activity and is not shown in the Table.)”.

Regarding B4, the “Specific activity (nkat/mg protein) 3′-O-glc” value was “— (Activity lower than 0.02 nkat/mg protein has been considered as trace activity and is not shown in the Table.)”.

On to B5, for which the “Specific activity (nkat/mg protein) 3′-O-glc” value is “— (Activity lower than 0.02 nkat/mg protein has been considered as trace activity and is not shown in the Table.)”.

Take B6: the “Specific activity (nkat/mg protein) 3′-O-glc” value was “— (Activity lower than 0.02 nkat/mg protein has been considered as trace activity and is not shown in the Table.)”.

The data set is the same for the next values; noted with them: quercetin glucosylated at 4′-OH; 0.5 mM quercetin, 5 mM UDP-glucose, 30° C.
In the case of B1, the “Specific activity (nkat/mg protein) 4′-O-glc” value is “— (Activity lower than 0.02 nkat/mg protein has been considered as trace activity and is not shown in the Table.)”.

In the case of B2, the “Specific activity (nkat/mg protein) 4′-O-glc” value is “— (Activity lower than 0.02 nkat/mg protein has been considered as trace activity and is not shown in the Table.)”.

For the molecule B3, the “Specific activity (nkat/mg protein) 4′-O-glc” value was “— (Activity lower than 0.02 nkat/mg protein has been considered as trace activity and is not shown in the Table.)”.

On to B4, for which the “Specific activity (nkat/mg protein) 4′-O-glc” value was “— (Activity lower than 0.02 nkat/mg protein has been considered as trace activity and is not shown in the Table.)”.

For B5, the “Specific activity (nkat/mg protein) 4′-O-glc” value is “— (Activity lower than 0.02 nkat/mg protein has been considered as trace activity and is not shown in the Table.)”.

B6: the “Specific activity (nkat/mg protein) 4′-O-glc” value is “— (Activity lower than 0.02 nkat/mg protein has been considered as trace activity and is not shown in the Table.)”.

The data set is the same for the next values; noted with them: quercetin glucosylated at 7-OH; 0.5 mM quercetin, 5 mM UDP-glucose, 30° C.
On to B1, for which the “Specific activity (nkat/mg protein) 7-O-glc” value was “— (Activity lower than 0.02 nkat/mg protein has been considered as trace activity and is not shown in the Table.)”.

Take B2: the “Specific activity (nkat/mg protein) 7-O-glc” value was “— (Activity lower than 0.02 nkat/mg protein has been considered as trace activity and is not shown in the Table.)”.

On to B3, for which the “Specific activity (nkat/mg protein) 7-O-glc” value was “— (Activity lower than 0.02 nkat/mg protein has been considered as trace activity and is not shown in the Table.)”.

In the case of B4, the “Specific activity (nkat/mg protein) 7-O-glc” value is “— (Activity lower than 0.02 nkat/mg protein has been considered as trace activity and is not shown in the Table.)”.

In the case of B5, the “Specific activity (nkat/mg protein) 7-O-glc” value was “— (Activity lower than 0.02 nkat/mg protein has been considered as trace activity and is not shown in the Table.)”.

With B6, the “Specific activity (nkat/mg protein) 7-O-glc” value is “— (Activity lower than 0.02 nkat/mg protein has been considered as trace activity and is not shown in the Table.)”.
